Assay results reported in PMC7461331, “Stability of Begomoviral pathogenicity determinant βC1 is modulated by mutually antagonistic SUMOylation and SIM interactions” (BMC Biology, 2020).

Target: the molecule itself
Assay: SEC; size exclusion profile of recombinant NiNTA purified 6X HIS SUMO proteins on a SD75 column, void volume 40.25 ml; AtSUMO3 and AtSUMO5 after refolding

B1: 6X HIS tagged AtSUMO5, recombinant, refolded (natural protein, Arabidopsis thaliana, UniProt Q8VZI7 1-108, looked up)
chain: MVSSTDTISASFVSKKSRSPETSPHMKVTLKVKNQQGAEDLYKIGTHAHLKKLMSAYCTKRNLDYSSVRFVYNGREIKARQTPAQLHMEEEDEICMVMELGGGGPYTP
notes: 15N-labelled; not shown: His6, N-terminal, kept
- binding result: binds

B2: 6X HIS tagged AtSUMO3, recombinant, refolded (natural protein, Arabidopsis thaliana, UniProt Q9FLP5 1-111, looked up)
chain: MSNPQDDKPIDQEQEAHVILKVKSQDGDEVLFKNKKSAPLKKLMYVYCDRRGLKLDAFAFIFNGARIGGLETPDELDMEDGDVIDACRAMSGGLRANQRQWSYMLFDHNGL
notes: as for B1
- binding result: binds
